Stoichiometry N data for two substances are collected here from paper PMC7527733.

In experiment [1] the target is Elizabethkingia anophelis strain AG1 short CDC-like protein (CDCL^S) (Elizabethkingia anophelis strain AG1). Briefly: […]) in 20 mM HEPES (pH 7), 150 mM NaCl, […] (55:45) […].
For experiment [2], the target named is Elizabethkingia anophelis strain AG1 CDC-like protein (CDCL) (Elizabethkingia anophelis strain AG1). Briefly: SDS-agarose gel electrophoresis (SDS-AGE).

Consider “Elizabethkingia anophelis strain AG1 short CDC-like protein (CDCL^S) (natural protein)”, for which, in experiment [1], the stoichiometry N stood at 28 monomers.
On to “Elizabethkingia anophelis strain AG1 CDC-like protein (CDCL) (natural protein)”, for which the stoichiometry N in experiment [2] turned out to be 2.
